In one experiment the target is T1, Homer3, Q9NSC5.
T1 chain: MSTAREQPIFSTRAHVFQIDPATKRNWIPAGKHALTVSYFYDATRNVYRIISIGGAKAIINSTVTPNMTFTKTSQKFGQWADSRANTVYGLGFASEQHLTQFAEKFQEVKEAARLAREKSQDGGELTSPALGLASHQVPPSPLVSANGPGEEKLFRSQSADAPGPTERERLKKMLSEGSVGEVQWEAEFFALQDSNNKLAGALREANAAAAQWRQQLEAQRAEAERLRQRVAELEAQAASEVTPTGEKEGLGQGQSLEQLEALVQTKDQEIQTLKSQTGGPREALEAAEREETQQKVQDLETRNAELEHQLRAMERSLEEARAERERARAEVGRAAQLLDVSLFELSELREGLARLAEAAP
The experiment can be described thus: SEC-MALS; FPLC coupled with static light scattering; Superose 12 10/300 GL; 50 mM Tris pH 8.0, 100 mM NaCl, 1 mM EDTA, 1 mM DTT; Homer3 and Pi-Homer3 at 50 μM. Particulars: remark: other sources report otherwise. (In general: Size exclusion chromatography separates by hydrodynamic size, large species first.)

Experiment [1] addresses T2, Pi-Homer3 (Homer3 phosphorylated by CaMKIIα), Q9NSC5.
T2 chain: T1 chain
Described as above. Conditions: remark: other sources report otherwise.

As usually defined, the stoichiometry N is a count of units in the complex or per binding partner.

B1: Homer3, Q9NSC5 1-361 (natural protein)
chain: T1 chain
The molecule B1 had a stoichiometry N with Homer3, Q9NSC5 of 4.

B2: Pi-Homer3 (Homer3 phosphorylated by CaMKIIα), Q9NSC5 1-361 (natural protein)
chain: T1 chain
modifications: here or on the partner: phosphorylated by CaMKIIα at Ser residues in the central linker region (positions not given); phosphorylated by CaMKIIα at Ser residues in the central linker region (positions not given)
B2 gave a stoichiometry N in experiment [1] of 4.

(Values after paper PMC10322149.)
